22 molecules from US20100009907A1, “Glucagon-Like Peptides and Uses Thereof” (AMYLIN PHARMACEUTICALS, INC., priority 2006, published 2010) can be followed below.

The first experiment has as its target endogenous GLP-1, calcitonin, and GIP receptors of RINm5f cells. The experiment in a line: cell-based or functional assay.
For the molecule HXEGTYTNDVTEYLEEKAAKEFIEWLIKGKPKKIRYS (here or on the partner: dAla at position 2 (a = dAla)) [SEQ ID NO 23], the GLP/GIP/CT cAMP(RIN) EC50 amounted to 0.22 nM.

For the molecule HXEGTYTNDVTEYLEEKAAKEFIEWLIKGKPKKIRYS (here or on the partner: Aib (2-Aminoisobutyric acid) at position 2) [SEQ ID NO 27], the GLP/GIP/CT cAMP(RIN) EC50 was determined as 0.544 nM.

As to HAEGTFTSDVTQQLDEKAAKEFIDWLIN (also called nmGLP-1 analog) [SEQ ID NO 7], the GLP/GIP/CT cAMP(RIN) EC50 came out at 4.7 nM.

Take HAEGTFTNDMTNYLEEKAAKEFVGWLIKGRS (also called nmGLP-1 analog) [SEQ ID NO 6]: the GLP/GIP/CT cAMP(RIN) EC50 came to 1.23 nM.

As for HAEGTFTSDVTQQLDEKAAKEFIDWLINGGPSSGAPPPS [SEQ ID NO 9], the GLP/GIP/CT cAMP(RIN) EC50 was 0.28 nM.

Regarding HXEGTFTSDVTQQLDEKAAKEFIDWLIN (here or on the partner: dAla at position 2 (a = dAla)) [SEQ ID NO 8], the GLP/GIP/CT cAMP(RIN) EC50 was determined as 19 nM.

For HAEGTFTSDVTQQLDEKAAKEFIDALINGGPSKEIIS (also called nmGLP-1 analog) [SEQ ID NO 13], the GLP/GIP/CT cAMP(RIN) EC50 came out at 196 nM.

Take HXEGTFTSDVTQQLDEKAAKEFIDWLINGGPSKEIIS (here or on the partner: dAla at position 2 (a = dAla)) [SEQ ID NO 10]: the GLP/GIP/CT cAMP(RIN) EC50 amounted to 0.048 nM.

Turning to HAEGTYTNDVTQFLEEKAAKEFIDWLIKGKPKKQRLS [SEQ ID NO 50], the GLP/GIP/CT cAMP(RIN) EC50 was 0.14 nM.

HXEGTYTNDVTQFLEEKAAKEFIDWLIKGKPKKQRLS (here or on the partner: Abu (2-Aminobutyric acid) at position 2) [SEQ ID NO 53]: the GLP/GIP/CT cAMP(RIN) EC50 turned out to be 0.146 nM.

As to HXEGTYTNDVTQFLEEKAAKEFIDWLIKGKPKKQRLS (here or on the partner: dAla at position 2 (a = dAla)) [SEQ ID NO 54], the GLP/GIP/CT cAMP(RIN) EC50 is 0.435 nM.

A further experiment deals with T1, GLP-1 receptor (endogenous, RINm5F cell membranes; rat thyroid carcinoma 6-23 clone 6 cells) (rat, UniProt P32301 22-463).
T1 sequence (looked up): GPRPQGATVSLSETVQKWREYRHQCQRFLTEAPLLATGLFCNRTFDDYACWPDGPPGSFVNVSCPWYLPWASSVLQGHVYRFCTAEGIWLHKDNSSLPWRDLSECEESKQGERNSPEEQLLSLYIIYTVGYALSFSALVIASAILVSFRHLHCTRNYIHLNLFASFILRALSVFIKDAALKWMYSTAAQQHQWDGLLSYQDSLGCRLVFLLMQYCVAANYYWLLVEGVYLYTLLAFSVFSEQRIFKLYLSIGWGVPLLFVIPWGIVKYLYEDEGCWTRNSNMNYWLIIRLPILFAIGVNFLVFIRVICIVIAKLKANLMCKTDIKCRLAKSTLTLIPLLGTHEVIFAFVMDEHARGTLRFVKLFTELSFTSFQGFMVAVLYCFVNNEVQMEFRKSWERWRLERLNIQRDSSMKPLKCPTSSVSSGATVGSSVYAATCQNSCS
Description: cell-based or functional assay.
Consider HAEGTYTNDVTEYLEEKAAKEFIEWLIKGKPK [SEQ ID NO 40], for which the “GLP-1 cAMP (6-23) EC50” value stood at 0.12 nM.

Take EGTYTNDVTEYLEEKAAKEFIEWLIKGKPKKIRYS (also called nmGLP-1 analog) [SEQ ID NO 37]: the “GLP-1 cAMP (6-23) EC50” value was over 1000 nM.

In the case of HXEGTYTNDVTEYLEEKAAKEFIEWLI (dAla at position 2 (a = dAla)) [SEQ ID NO 43], the “GLP-1 cAMP (6-23) EC50” value was found to be 0.14 nM.

Take HAEGTYTNDVTEYLEEKAAKEFIEWL [SEQ ID NO 44]: the “GLP-1 cAMP (6-23) EC50” value is 23 nM.

For HAEGTYTNDVTEYLEEKAAKEFIEWLIGKPKKIRYS (also called nmGLP-1 analog) [SEQ ID NO 35], the “GLP-1 cAMP (6-23) EC50” value turned out to be 0.172 nM.

Consider HAEGTYTNDVTEYLEEKAAKEFIEWLIKGPKKIRYS (also called nmGLP-1 analog) [SEQ ID NO 36], for which the “GLP-1 cAMP (6-23) EC50” value was 0.086 nM.

Regarding HAEGTYTNDVTEYLEEKAAKEFIEW [SEQ ID NO 46], the “GLP-1 cAMP (6-23) EC50” value was found to be 1940 nM.

Turning to HXEGTYTNDVTEYLEEKAAKEFIEWL (dAla at position 2 (a = dAla)) [SEQ ID NO 45], the “GLP-1 cAMP (6-23) EC50” value came out at 34 nM.

HAEGTYTNDVTEYLEEKAAKEFIEWLIPKKIRYS (also called nmGLP-1 analog) [SEQ ID NO 32]: the “GLP-1 cAMP (6-23) EC50” value was 8.3 nM.

In the case of HAEGTYTNDVTEYLEEKAAKFIEWLIKGKPKKIRYS (also called nmGLP-1 analog) [SEQ ID NO 31], the “GLP-1 cAMP (6-23) EC50” value turned out to be 44 nM.

As for HAEGTYTNDVTEYLEEKAAKEFIEWLI [SEQ ID NO 42], the “GLP-1 cAMP (6-23) EC50” value worked out at 0.22 nM.
